Source: paper PMC6181919
Values belong to the substance of their own block, whether it stands above or below them.

What was measured:
[1] = target: FLAG-tagged Ser1169Cys (S2C) C-Proα2(I) (human); experiment: non-reducing SDS-PAGE immunoblot; conditioned media of transfected HEK293 cells, treated with 100 mM iodoacetamide, boiled in SDS, 12% gel, non-reducing; denaturing, shows disulfide-linked species only; two-colour detection of HA and FLAG
[2] = target: FLAG-tagged Ser1169Cys (S2C) C-Proα2(I) (human); experiment: non-reducing SDS-PAGE immunoblot; wild-type C-Proα1(I) and S2C C-Proα2(I) co-expressed at 1:1, 2:1 and 5:1; media depleted by HA immunoprecipitation, unbound fraction FLAG-immunoprecipitated, elutions on a non-reducing SDS-PAGE gel
[3] = target: FLAG-tagged Ser1169Cys (S2C) C-Proα2(I) (human); experiment: co-IP; sequential: conditioned media of co-transfected HEK293 cells, anti-FLAG beads (C-Proα2(I)), FLAG peptide elution, then HA beads (C-Proα1(I)); non-reducing, washes with 50 mM EDTA to deplete Ca^2+, 4 °C; reducing SDS-PAGE immunoblot; ratio by quantified blots
[4] = target: purified S2C (Ser1169Cys) C-Proα2(I), His tag cleaved (human); experiment: AUC; sedimentation equilibrium, 25 °C, 20 mM Bis-Tris propane pH 7, 150 mM NaCl, without Ca^2+; equilibrium constants are of monomer to dimer
[5] = target: purified S2C (Ser1169Cys) C-Proα2(I), His tag cleaved (human); experiment: AUC; sedimentation equilibrium, 25 °C, 20 mM Bis-Tris propane pH 7, 150 mM NaCl, with 0.5 mM CaCl2; monomer to trimer
[6] = target: purified wild-type C-Proα2(I), His tag cleaved (human); experiment: AUC; sedimentation equilibrium, 25 °C, 20 mM Bis-Tris propane pH 7, 150 mM NaCl, without Ca^2+; equilibrium constants are of monomer to dimer
[7] = target: purified wild-type C-Proα2(I), His tag cleaved (human); experiment: AUC; sedimentation equilibrium, 25 °C, 20 mM Bis-Tris propane pH 7, 150 mM NaCl, with 0.5 mM CaCl2; monomer to trimer
[8] = target: wild-type, FLAG-tagged C-Proα2(I) (C-propeptide domain of human Colα2(I)) (human); experiment: co-IP; sequential: conditioned media of co-transfected HEK293 cells, anti-FLAG beads (C-Proα2(I)), FLAG peptide elution, then HA beads (C-Proα1(I)); non-reducing, washes with 50 mM EDTA to deplete Ca^2+, 4 °C; reducing SDS-PAGE immunoblot; ratio by quantified blots
wild-type, FLAG-tagged C-Proα2(I) (C-propeptide domain of human Colα2(I)) (human), sequence (P08123 23-1366): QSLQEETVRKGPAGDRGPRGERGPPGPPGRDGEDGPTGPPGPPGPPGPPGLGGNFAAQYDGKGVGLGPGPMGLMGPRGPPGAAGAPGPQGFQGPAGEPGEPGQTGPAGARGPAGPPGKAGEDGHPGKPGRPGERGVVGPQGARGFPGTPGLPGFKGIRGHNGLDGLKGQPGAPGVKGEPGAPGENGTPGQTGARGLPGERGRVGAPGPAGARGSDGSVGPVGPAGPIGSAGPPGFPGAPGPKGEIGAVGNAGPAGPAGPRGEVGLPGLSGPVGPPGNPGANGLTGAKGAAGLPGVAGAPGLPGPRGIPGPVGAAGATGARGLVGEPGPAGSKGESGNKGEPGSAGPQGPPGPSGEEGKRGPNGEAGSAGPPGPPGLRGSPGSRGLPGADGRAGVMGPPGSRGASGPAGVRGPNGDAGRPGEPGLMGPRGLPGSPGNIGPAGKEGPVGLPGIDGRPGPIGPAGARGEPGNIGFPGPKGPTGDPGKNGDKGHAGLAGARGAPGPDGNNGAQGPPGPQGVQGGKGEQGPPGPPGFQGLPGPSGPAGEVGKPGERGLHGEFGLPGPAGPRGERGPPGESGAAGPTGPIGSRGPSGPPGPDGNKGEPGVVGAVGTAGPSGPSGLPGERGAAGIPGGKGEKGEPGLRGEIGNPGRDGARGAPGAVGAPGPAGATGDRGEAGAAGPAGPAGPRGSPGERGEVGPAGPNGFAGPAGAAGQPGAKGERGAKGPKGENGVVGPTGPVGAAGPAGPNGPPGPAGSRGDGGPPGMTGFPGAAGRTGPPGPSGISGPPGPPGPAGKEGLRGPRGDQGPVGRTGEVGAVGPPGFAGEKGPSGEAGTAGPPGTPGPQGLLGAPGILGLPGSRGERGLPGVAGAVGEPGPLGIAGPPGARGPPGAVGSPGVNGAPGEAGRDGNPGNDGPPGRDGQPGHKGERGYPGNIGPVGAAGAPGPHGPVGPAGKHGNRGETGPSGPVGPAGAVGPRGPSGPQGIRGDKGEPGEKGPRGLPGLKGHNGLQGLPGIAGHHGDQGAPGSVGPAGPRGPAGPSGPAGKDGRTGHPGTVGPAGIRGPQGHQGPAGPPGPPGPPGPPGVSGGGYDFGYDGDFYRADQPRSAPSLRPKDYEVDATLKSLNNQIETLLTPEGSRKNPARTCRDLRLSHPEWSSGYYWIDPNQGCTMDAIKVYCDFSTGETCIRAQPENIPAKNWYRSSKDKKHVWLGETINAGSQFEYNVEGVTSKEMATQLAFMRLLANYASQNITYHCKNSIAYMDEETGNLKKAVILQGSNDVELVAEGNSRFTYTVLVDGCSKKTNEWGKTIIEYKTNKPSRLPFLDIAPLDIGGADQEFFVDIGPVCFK

[9] = target: wild-type, HA-tagged C-Proα1(III) (human); experiment: non-reducing SDS-PAGE immunoblot; conditioned media of transfected HEK293 cells, treated with 100 mM iodoacetamide, boiled in SDS, 12% gel, non-reducing; denaturing, shows disulfide-linked species only; two-colour detection of HA and FLAG

- stoichiometry N [1]: 3
- stoichiometry N [2]: 3
Substance: FLAG-tagged Ser1169Cys (S2C) C-Proα2(I) (domain or fragment)

- stoichiometry N (C-Proα1(I):C-Proα2(I)) [3]: 0.5
Substance: HA-tagged Cys1265Ser (C2S) C-Proα1(I) (from UniProt P02452 1219-1464) (domain or fragment)

- stoichiometry N [4]: 3
- stoichiometry N [5]: 3
Substance: purified S2C (Ser1169Cys) C-Proα2(I), His tag cleaved (domain or fragment)

- Ka [6]: 6500 M⁻¹
- stoichiometry N [6]: 2
- stoichiometry N [7]: 3
Substance: purified wild-type C-Proα2(I), His tag cleaved (domain or fragment)

- stoichiometry N (C-Proα1(I):C-Proα2(I)) [3]: 2
- stoichiometry N (C-Proα1(I):C-Proα2(I)) [8]: 2
Substance: wild-type, HA-tagged C-Proα1(I) (C-propeptide domain of human Colα1(I)) (from UniProt P02452 1219-1464) (domain or fragment)

- stoichiometry N [9]: 3
Substance: wild-type, HA-tagged C-Proα1(III) (domain or fragment)
